Laboratory results from article doi:10.1101/804138.
Values belong to the substance of their own block, whether it stands above or below them.

What was measured:
[1] = molecular target: untagged GapR1-89 (Caulobacter crescentus)
[2] = molecular target: His6-GapR1-76 (truncated protein lacking only the hydrophobic patch of Helix 3) (Caulobacter crescentus); experiment: SEC + cross-linking
[3] = molecular target: His6-GapR1-69 (truncated protein lacking the entire Helix 3) (Caulobacter crescentus); experiment: SEC + cross-linking
[4] = molecular target: His6-GapR1-89 (full-length WT GapR), purified (Caulobacter crescentus); experiment: SEC + cross-linking

- stoichiometry N [1]: 4
Substance: untagged GapR1-89 (natural protein)

- stoichiometry N [2]: 2
Substance: His6-GapR1-76 (truncated protein lacking only the hydrophobic patch of Helix 3) (domain or fragment)

- stoichiometry N [3]: 2
Substance: His6-GapR1-69 (truncated protein lacking the entire Helix 3) (domain or fragment)

- stoichiometry N [4]: 4
Substance: His6-GapR1-89 (full-length WT GapR), purified (natural protein)
